Each block holds one binder with its values, some of them ahead of it.
Columns and labels:
[1] = target: T1, murine ACC-α (acetyl-Coenzyme-A carboxylase, α form), endogenous protein of murine cell lysates (murine, UniProt Q5SWU9 1-2345); assay: GST co-sedimentation, Western blot with streptavidin-peroxidase
Method: (§1) The proteins for fusion with GST were synthesised in Escherichia coli, strain JM 109 (Promega) transformed with pGEX-4T-1, pGEX-BRCT, pGEX-BRCT A, pGEX-BRCT B, pGEX-BRCT L, pGEX-BRCT M or pGEX-BRCTh as well as the mutated forms of BRCTh (A1708E, P1749R, M1775R, R1835X and Y1853X). They were purified by affinity chromatography on Glutathione-Sepharose. The test of binding by co-sedimentation was carried out in vitro by incubating cellular lysates in the presence of non-recombinant GST proteins or GST fusion proteins and Glutathione-Sepharose beads. 10 μg of GST or fusion GST were used in each binding test. The protein complexes were carefully washed (50 mM Tris HCl pH 7.6, 100 mM KCl, 0.05% Tween 20, 1 mM DTT, 0.2 mM PMSF) to eliminate the non-specific protein interactions and released by heating at 100° C. in loading buffer 5× SDS-PAGE and 100 mM DTT. The proteins were analysed by SDS-PAGE and visualised by autoradiography, staining with silver (Bio-Rad SilverStain) or staining with Coomassie blue according to the nature of the lysate used
In order to map the domain of interaction of ACC-α on the BRCT tandem of Brca1, co-sedimentation tests with six distinct fusion proteins were carried out. The protein complexes of co-sedimentation were resolved by SDS-PAGE and visualised by Western Blot. The ACC protein containing the biotin was detected using peroxidase coupled with streptavidin, and as streptavidin has a high affinity for biotin it is therefore a very sensitive probe for detecting ACC-α (Witters, L. A. et al, 1994). […] However, the fragment GST-BRCT A which lacks the sequences of the domain B of BRCT is incapable of combining with ACC-α.

[2] = target: T1, murine ACC-α (acetyl-Coenzyme-A …); assay: GST co-sedimentation in a lysate of murine fibroblasts
Excerpt: The inventors have shown that the tandem of the two BRCT domains was necessary and sufficient for the formation of this complex. Moreover, the inventors have shown that the formation of this complex was conserved in the human cells, using a GST-human BRCT fusion protein in co-sedimentation experiments similar to those cited above.
as §1

[3] = target: T1, murine ACC-α (acetyl-Coenzyme-A …); assay: GST co-sedimentation on NIH3T3 lysate
[4] = target: T1, murine ACC-α (acetyl-Coenzyme-A …); assay: GST co-sedimentation with the mutated tandem
Method: as §1
Numerous familial mutations have been found in the carboxy-terminal segment of BRCA1. One of these, R1835X, localised in the distal domain of BRCT, introduces a non-sense codon which suppresses the last 29 amino acids of Brca1 and thus breaks the second BRCT domain. […]

B1: GST-BRCT B (GST fusion with the second BRCT module of murine Brca1 alone) (other)
chain: REKLFKGLQVYCCEPFTNMPKDELERMLQLCGASVVKELPSLTHDTGAHLVVIVQPSAWTEDSNCPDIGQLCKARLVMWDWVLDSLSSYRCRGLDAYLVQNITCDSSEPQDSND
notes: also called BRCT B module alone; pGEX-BRCT B product; not shown: GST carrier and vector linker of pGEX-4T-1 at the N end
binding result [1]: no binding (tested: 10 µg of fusion GST per binding test)

B2: GST-Brca1 N (GST fusion containing the 220 N-terminal residues of murine Brca1) (other)
chain: MDLSAVQIQEVQNVLHAMQKILECPICLELIKEPVSTKCDHIFCKFCMLKLLNQKKGPSQCPLCKNEITKRSLQGSTRFSQLAEELLRIMAAFELDTGMQLTNGFSFSKKRNNSCERLNEEASIIQSVGYRNRVRRLPQVEPGNATLKDSLGVQLSNLGIVRSVKKNRQTQPRKKSVYIELDSDSSEETVTKPGDCSVRDQELLQTAPQEAGDEGKLHSA
notes: also called GST fusion protein expressing the 220 amino-terminal residues of the murine Brca1 protein; not shown: glutathione S-transferase (GST); the vector for this construct is not described
binding result [1]: no binding (tested: 10 µg of fusion GST per binding test)

binding result [2]: binds
B3: GST-BRCT (GST fusion protein containing amino acids 1583 to 1812 of murine Brca1) (other)
chain: TSSEERADRDISMVVSGLTPKEVMTVQKFAEKYRLTLTDAITEETTHVIIKTDAEFVCERTLKYFLGIAGGKWIVSYSWVVRSIQERRLLNVHEFEVKGDVVTGRNHQGPRRSRESREKLFKGLQVYCCEPFTNMPKDELERMLQLCGASVVKELPSLTHDTGAHLVVIVQPSAWTEDSNCPDIGQLCKARLVMWDWVLDSLSSYRCRGLDAYLVQNITCDSSEPQDSND
notes: Made in E. coli and held on glutathione-Sepharose beads; also called murine BRCT tandem; BRCT tandem of Brca1; not shown: glutathione S-transferase (GST) encoded by pGEX-4T-1 (Amersham Pharmacia Biotech)

binding result [1]: binds
B4: GST-BRCT L (GST fusion containing residues 1512-1812 of murine Brca1) (other)
chain: EGTPYLGSGISLFSSRDPESESPKEPAHIGTTPASTSALKIPQGQVAFRSAAAAGADKAVVGIVSKIKPELTSSEERADRDISMVVSGLTPKEVMTVQKFAEKYRLTLTDAITEETTHVIIKTDAEFVCERTLKYFLGIAGGKWIVSYSWVVRSIQERRLLNVHEFEVKGDVVTGRNHQGPRRSRESREKLFKGLQVYCCEPFTNMPKDELERMLQLCGASVVKELPSLTHDTGAHLVVIVQPSAWTEDSNCPDIGQLCKARLVMWDWVLDSLSSYRCRGLDAYLVQNITCDSSEPQDSND
notes: also called longer form of the murine BRCT domain; pGEX-BRCT L product; not shown: glutathione S-transferase (GST) encoded by pGEX-4T-1

binding result [3]: binds
B5: GST-BRCTh (GST fusion with the human form of the BRCT tandem of BRCA1) (other)
chain: TASTERVNKRMSMVVSGLTPEEFMLVYKFARKHHITLTNLITEETTHVVMKTDAEFVCERTLKYFLGIAGGKWVVSYFWVTQSIKERKMLNEHDFEVRGDVVNGRNHQGPKRARESQDRKIFRGLEICCYGPFTNMPTDQLEWMVQLCGASVVKELSSFTLGTGVHPIVVVQPDAWTEDNGFHAIGQMCEAPVVTREWVLDSVALYQCQELDTYLIPQIPHSHY
notes: also called GST-human BRCT fusion protein; human BRCT tandem; not shown: glutathione S-transferase (GST) encoded by the pGEX vector

B6: GST-BRCT M (GST-BRCT of murine Brca1 with the non-sense mutation W1777X) (other)
chain: TSSEERADRDISMVVSGLTPKEVMTVQKFAEKYRLTLTDAITEETTHVIIKTDAEFVCERTLKYFLGIAGGKWIVSYSWVVRSIQERRLLNVHEFEVKGDVVTGRNHQGPRRSRESREKLFKGLQVYCCEPFTNMPKDELERMLQLCGASVVKELPSLTHDTGAHLVVIVQPSAWTEDSNCPDIGQLCKARLVM
notes: also called mutated tandem; pGEX-BRCT M product; not shown: GST carrier and vector linker of pGEX-4T-1 at the N end
binding result [4]: no binding (tested: 10 µg of fusion GST per binding test)

B7: GST-BRCT A (GST fusion with the first BRCT module of murine Brca1 alone) (other)
chain: TSSEERADRDISMVVSGLTPKEVMTVQKFAEKYRLTLTDAITEETTHVIIKTDAEFVCERTLKYFLGIAGGKWIVSYSWVVRSIQERRLLNVHEFEVKGDVVTGRNHQGPRRSRESREKLFKG
notes: It uses the same forward primer as GST-BRCT, so it probably starts at residue 1583; also called BRCT A module alone; pGEX-BRCT A product; not shown: GST carrier and vector linker of pGEX-4T-1 at the N end
binding result [1]: no binding (tested: 10 µg of fusion GST per binding test)
